B1: Twister Ribozyme (parent)
chain: AACACUGCCAAUGCCGGUCCCAAGCCCGGAUAAAAGUGGAGGGGGCGG

Variants of: B1
Test: self-cleavage, relative activity (ratio to wild type); higher = more cleavage; co-transcriptional
For AACACUGCCAAUGCCGGUCCGAAGCCCGCAUAAAAGUGGAGGGGGCGG [C21G G29C], the self-cleavage was 0.123.
AACACUGCCAAUGCCGGUCCGAAGCCCGGAUGAAAGUGGAGGGGGCGG [C21G A32G] showed a self-cleavage of 0.0254.
Work on AACACUGCCAAUGCCGGUCCGAAGCCCGGAUCAAAGUGGAGGGGGCGG [C21G A32C] yielded a self-cleavage of 0.0636.
AACACUGCCAAUGCCGGUCCUAAGCUCGGAUAAAAGUGGAGGGGGCGG [C21U C26U] gave a self-cleavage of 0.0769.
In the case of AACACUGCCAAUGCCGGUCCUAAGCGCGGAUAAAAGUGGAGGGGGCGG [C21U C26G], the self-cleavage is reported as 0.0581.
With AACACUGCCAAUGCCGGUCCUAAGCCCGGAUAAAAGUGGAGGGGGCAG [C21U G47A] the self-cleavage was 0.123.
AACACUGCCAAUGCCGGUCCUAAGCCCGGAUAAAAGUGGAGGGGGCCG [C21U G47C] showed a self-cleavage of 0.0939.
In the case of AACACUGCCAAUGCCGGUCCUUAGCCCGGAUAAAAGUGGAGGGGGCGG [C21U A22U], the self-cleavage is reported as 0.072.
Work on AACACUGCCAAUGCCGGUCCUAAGCCCGGUUAAAAGUGGAGGGGGCGG [C21U A30U] yielded a self-cleavage of 0.141.
Work on AACACUGCCAAUGCCGGUCCUAAGCCCGGCUAAAAGUGGAGGGGGCGG [C21U A30C] yielded a self-cleavage of 0.0806.
AACACUGCCAAUGCCGGUCCGAAGCCCGGAUAAAAGUGGAGGGUGCGG [C21G G44U] showed a self-cleavage of 0.102.
AACACUGCCAAUGCCGGUCCGAAGCCCGGAUAAAAGUGGAGGGCGCGG [C21G G44C] showed a self-cleavage of 0.0843.
AACACUGCCAAUGCCGGUCCGAAGCCCGGAUAAAAGUGGAGGGAGCGG [C21G G44A] showed a self-cleavage of 0.0938.
With AACACUGCCAAUGCCGGUCCGAAGCCCGGAUAAAAGUGGAGGCGGCGG [C21G G43C] the self-cleavage was 0.0506.
Variant AACACUGCCAAUGCCGGUCCUAAACCCGGAUAAAAGUGGAGGGGGCGG [C21U G24A] has a self-cleavage of 0.102.
Work on AACACUGCCAAUGCCGGUCCUAAGCCCCGAUAAAAGUGGAGGGGGCGG [C21U G28C] yielded a self-cleavage of 0.0826.
In the case of AACACUGCCAAUGCCGGUCCUAAGCCCAGAUAAAAGUGGAGGGGGCGG [C21U G28A], the self-cleavage is reported as 0.102.
For AACACUGCCAAUGCCGGUCCUAAGCCCGGAUAAAAGCGGAGGGGGCGG [C21U U37C], the self-cleavage was 0.0764.
AACACUGCCAAUGCCGGUCCUAAGCCCGGAUAAAAGGGGAGGGGGCGG [C21U U37G] gave a self-cleavage of 0.0506.
With AACACUGCCAAUGCCGGUCCAAAGCCCGGAUAAAAGUGGAGGGGGCUG [C21A G47U] the self-cleavage was 0.117.
Work on AACACUGCCAAUGCCGGUCCAAAGCCCGGAUAAAAGUGGAGGGGGCCG [C21A G47C] yielded a self-cleavage of 0.0714.
Variant AACACUGCCAAUGCCGGUCCAAAGCCCGGAUAAAAGUGGAGGGCGCGG [C21A G44C] has a self-cleavage of 0.0966.
With AACACUGCCAAUGCCGGUCCUAAGUCCGGAUAAAAGUGGAGGGGGCGG [C21U C25U] the self-cleavage was 0.0856.
For AACACUGCCAAUGCCGGUCCGAAGCCCCGAUAAAAGUGGAGGGGGCGG [C21G G28C], the self-cleavage was 0.0382.
Work on AACACUGCCAAUGCCGGUCCGAAGCCCUGAUAAAAGUGGAGGGGGCGG [C21G G28U] yielded a self-cleavage of 0.0788.
AACACUGCCAAUGCCGGUCCGAAGCCCAGAUAAAAGUGGAGGGGGCGG [C21G G28A] showed a self-cleavage of 0.124.
Work on AACACUGCCAAUGCCGGUCCUAAGCCCGGAUACAAGUGGAGGGGGCGG [C21U A33C] yielded a self-cleavage of 0.119.
Work on AACACUGCCAAUGCCGGUCCUAAGCCCGGAUAUAAGUGGAGGGGGCGG [C21U A33U] yielded a self-cleavage of 0.0831.
For AACACUGCCAAUGCCGGUCCAAAGCCCGUAUAAAAGUGGAGGGGGCGG [C21A G29U], the self-cleavage was 0.134.
Variant AACACUGCCAAUGCCGGUCCUAAGCCCGGAUAAAAGUGGAGGCGGCGG [C21U G43C] has a self-cleavage of 0.0867.
AACACUGCCAAUGCCGGUCCUAAGCCCGGAUAAAAGUGGAGGAGGCGG [C21U G43A] gave a self-cleavage of 0.08.
AACACUGCCAAUGCCGGUCCGAAGCGCGGAUAAAAGUGGAGGGGGCGG [C21G C26G] showed a self-cleavage of 0.0411.
In the case of AACACUGCCAAUGCCGGUCCUAAGCCCGGAUAAAACUGGAGGGGGCGG [C21U G36C], the self-cleavage is reported as 0.0754.
Variant AACACUGCCAAUGCCGGUCCUAAGCCCGGAUAAAAAUGGAGGGGGCGG [C21U G36A] has a self-cleavage of 0.0555.
In the case of AACACUGCCAAUGCCGGUCCGAAGCCCGGAUAAAAGUGGAUGGGGCGG [C21G G41U], the self-cleavage is reported as 0.32.
AACACUGCCAAUGCCGGUCCGAAGCCCGGAUAAAAGUGGACGGGGCGG [C21G G41C] gave a self-cleavage of 0.577.
Work on AACACUGCCAAUGCCGGUCCAAAGCCCGGAUAAAAUUGGAGGGGGCGG [C21A G36U] yielded a self-cleavage of 0.0686.
In the case of AACACUGCCAAUGCCGGUCCAAAGCCCGGAUAAAACUGGAGGGGGCGG [C21A G36C], the self-cleavage is reported as 0.109.
AACACUGCCAAUGCCGGUCCUAAGCCCGGAUAAAAGUGGAGGGGGCGG [C21U] gave a self-cleavage of 0.129.
Variant AACACUGCCAAUGCCGGUCCGAAGCCCGGAUAAAAGUGGAGGGGGCGG [C21G] has a self-cleavage of 0.0865.
Work on AACACUGCCAAUGCCGGUCCUAAGCCCGGAUAAAAGUGGAGGGAGCGG [C21U G44A] yielded a self-cleavage of 0.126.
For AACACUGCCAAUGCCGGUCCUAAGCCCGGAUAAAAGUGGAGGGCGCGG [C21U G44C], the self-cleavage was 0.0722.
For AACACUGCCAAUGCCGGUCCAAAGCCCGGAUAAAAGGGGAGGGGGCGG [C21A U37G], the self-cleavage was 0.0471.
AACACUGCCAAUGCCGGUCCAAAGCCCGGAUAAAAGCGGAGGGGGCGG [C21A U37C] gave a self-cleavage of 0.115.
For AACACUGCCAAUGCCGGUCCGAAGCCCGGAUAAAAGUGGAGGGGGCAG [C21G G47A], the self-cleavage was 0.0718.
In the case of AACACUGCCAAUGCCGGUCCGAAGCCCGGAUAAAAGUGGAGGGGGCUG [C21G G47U], the self-cleavage is reported as 0.142.
AACACUGCCAAUGCCGGUCCUAAGCCCGGAUAAGAGUGGAGGGGGCGG [C21U A34G] gave a self-cleavage of 0.0608.
AACACUGCCAAUGCCGGUCCUAAGCCCGGAUAAUAGUGGAGGGGGCGG [C21U A34U] showed a self-cleavage of 0.11.
In the case of AACACUGCCAAUGCCGGUCCGAAGCCCGGAAAAAAGUGGAGGGGGCGG [C21G U31A], the self-cleavage is reported as 0.0515.
With AACACUGCCAAUGCCGGUCCGAAGCCCGGACAAAAGUGGAGGGGGCGG [C21G U31C] the self-cleavage was 0.0753.
Variant AACACUGCCAAUGCCGGUCCAAAGCCCGGAUAAAAGUCGAGGGGGCGG [C21A G38C] has a self-cleavage of 0.101.
Variant AACACUGCCAAUGCCGGUCCGAAGCCAGGAUAAAAGUGGAGGGGGCGG [C21G C27A] has a self-cleavage of 0.0855.
AACACUGCCAAUGCCGGUCCUAAGCCCGGAUAAAUGUGGAGGGGGCGG [C21U A35U] showed a self-cleavage of 0.115.
AACACUGCCAAUGCCGGUCCGAAGCCCGGUUAAAAGUGGAGGGGGCGG [C21G A30U] showed a self-cleavage of 0.0816.

Reference: the RNAGym collection of RNA variant scans (doi:10.7554/elife.80360)
